How the values were obtained:
[1] = molecular target: rat lutropin receptor (LHR) (rat) (UniProt P16235); test: cell-based or functional assay
[2] = molecular target: rat lutropin receptor (LHR) (rat) (UniProt P16235); test: receptor binding assay
[3] = molecular target: rat lutropin receptor (LHR) (rat) (UniProt P16235); test: inhibition of 125I-hCG binding to CHO cells with rat LHR; from IC50; acid-stable hCGβ-S138C analog

Chain of rat lutropin receptor (LHR) (rat) (P16235 27-700): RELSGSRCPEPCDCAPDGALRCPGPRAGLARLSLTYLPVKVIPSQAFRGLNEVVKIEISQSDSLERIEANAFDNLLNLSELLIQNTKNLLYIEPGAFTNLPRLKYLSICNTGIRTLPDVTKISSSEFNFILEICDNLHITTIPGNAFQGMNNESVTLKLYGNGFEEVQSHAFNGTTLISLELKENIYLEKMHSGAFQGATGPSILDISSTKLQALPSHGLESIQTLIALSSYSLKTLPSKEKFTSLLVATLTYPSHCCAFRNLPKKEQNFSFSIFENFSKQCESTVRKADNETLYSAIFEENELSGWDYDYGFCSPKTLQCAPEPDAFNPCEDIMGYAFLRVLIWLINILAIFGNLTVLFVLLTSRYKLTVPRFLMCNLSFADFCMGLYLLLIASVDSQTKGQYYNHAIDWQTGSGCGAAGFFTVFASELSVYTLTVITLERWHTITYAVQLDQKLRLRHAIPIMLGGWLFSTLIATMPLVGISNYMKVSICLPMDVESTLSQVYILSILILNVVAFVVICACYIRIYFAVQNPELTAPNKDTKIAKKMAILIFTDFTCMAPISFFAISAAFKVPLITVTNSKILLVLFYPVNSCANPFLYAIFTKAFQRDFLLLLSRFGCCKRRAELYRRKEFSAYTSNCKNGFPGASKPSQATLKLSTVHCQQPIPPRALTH

Row | signaling assays [1] | activity relative to hCG [2] | Signal transduction potency (cAMP accumulation), acid-stable analog [1] | Receptor-Binding potency (percent hCG) [3] | Substance
1 | 50 % of hCG | > 50 % of hCG |  |  | analog containing the entire carboxyterminal residues of the hCG β-subunit attached to the α-subunit (from UniProt P01215 25-116) (ligand)
2 |  |  | 0.12 % of hCG | 0.05 % of hCG | αY88C + hCGβ-S138C (from UniProt P01215 25-116; P0DN86 21-165) (ligand)
3 |  |  | 0.18 % of hCG | 2.2 % of hCG | αT86C + hCGβ-S138C (from UniProt P01215 25-116; P0DN86 21-165) (ligand)

Reference: patent US20060177894A1
